Values belong to the binder of their own block, whether it stands above or below them. Square brackets hold non-standard residues; d marks the D form. Ends that are not written are not given here. * marks the point of attachment. Biotin = O=C1N[C@H]2[C@H](CS[C@H]2CCCCC(=O)*)N1; pS = N[C@@H](COP(=O)(O)O)C(=O)O
What was measured:
[1] = biological target: T1, biotinylated TDP-43 phospho peptide 370-384 (pS375) (human); test: capture ELISA, antibody on anti-mouse IgG, biotinylated peptide
T1 peptide: Biotin-GNNSY[pS]GSNSGAAIG
Description: (§1) Briefly, for capture detection in ELISA, wells of 96-well plates were coated with 5 μg/mL goat anti-mouse IgG (Fc gamma fragment specific), in carbonate buffer, overnight at 4° C. Plates were then washed with 0.05% Tween-20/PBS and blocked with 1% bovine serum albumin (BSA) in 0.05% Tween-20/PBS for 1 hour at 37° C. Phospho TDP-43 antibodies were then added at 5 μg/mL and incubated for 2 hours at 37° C. after which the plates were washed as described above. Biotinylated peptides representing each of the phospho sites, or non-phosphorylated, were incubated at 0.5 mM in 0.1% BSA and PBS for 1 hour at 37° C. after which the plates were washed. A streptavidin-HRP-conjugate (R&D Systems, Minnesota, United States) was added at 1/200 dilution in 0.05% Tween-20/1% BSA in PBS for 45 minutes in the dark at ambient temperature. After the final wash, plates were incubated with TMB (Sigma-Aldrich, Switzerland), an HRP substrate solution, and read at 405 nm using an ELISA plate reader (Tecan, Switzerland).

[2] = biological target: T2, biotinylated TDP-43 phospho peptide 370-384 (pS375 and pS379) (human); test: as above
T2 peptide: Biotin-GNNSY[pS]GSN[pS]GAAIG
Description: as §1

[3] = biological target: T3, biotinylated TDP-43 phospho peptide 401-413 (pS409 and pS410) (human); test: as above
T3 peptide: Biotin-FGSSMDSK[pS][pS]GWG
Description: as §1

[4] = biological target: T4, biotinylated non-phosphorylated TDP-43 peptide 366-414 (human, biotin on the N-terminus); test: as above
T4 peptide: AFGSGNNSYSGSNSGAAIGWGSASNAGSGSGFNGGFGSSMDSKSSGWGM
Description: as §1

[5] = biological target: T5, biotinylated TDP-43 phospho peptide 401-413 (pS409) (human); test: as above
T5 peptide: Biotin-FGSSMDSK[pS]SGWG
Description: as §1

[6] = biological target: T6, biotinylated TDP-43 phospho peptide 370-384 (pS379) (human); test: as above
T6 peptide: Biotin-GNNSYSGSN[pS]GAAIG
Description: as §1

[7] = biological target: T7, biotinylated TDP-43 phospho peptide 401-413 (pS410) (human); test: as above
T7 peptide: Biotin-FGSSMDSKS[pS]GWG
Description: as §1

Peptide 29 [8] = biological target: T8, Peptide 29 (human, phosphoserine at pS409 and pS410 (human TDP-43 numbering, in the SEQ ID NO: 9 part); Trioxatridecan-succinamic acid (Ttds) linker between SEQ ID NO: 7 and SEQ ID NO: 9); test: pairing sandwich ELISA, antibody coated as capture, target titrated
T8 peptide: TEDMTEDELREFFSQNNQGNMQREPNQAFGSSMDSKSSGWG
Description: (§2) The capacity of antibodies to bind phospho TDP-43 and TDP-43 was determined using a sandwich enzyme-linked immunosorbent assay (ELISA), where each antibody was paired with a second TDP-43 antibody previously characterized for TDP-43 binding and performance in sandwich immunoassays, ACI-7071-809F12-Ab1-rec2 (as described in WO2020234473) or ACI-7069-636E5-Ab1 (as described in WO2020234473). ELISA plates (Nunc™ Edge™ 96-Well, Non-Treated, Flat-Bottom Microplate, ThermoFisher Scientific, Denmark) were coated with 5 μg/mL of anti-phospho TDP-43 or anti-TDP-43 antibodies in carbo/bicarbonate buffer, overnight at 4° C. Plates were then washed with 0.05% Tween-20/PBS and blocked with 1% bovine serum albumin (BSA) in 0.05% Tween-20/PBS for 1 hour at 37° C. The plates were then washed again as described above.
(§3) Serial-dilutions of target peptide or protein were then added to the plates. For assays with anti-phospho TDP-43 antibodies, one of four peptide conjugates (peptides 11, 23, 28, or 29) each composed of two TDP-43 sequences, one phosphorylated and one non-phosphorylated, conjugated together with a Trioxatridecan-succinamic acid linker (Ttds, binding regions and sequences shown in Table 4) were used. Peptides 11, 23, 28, and 29 were added in a 10-fold serial dilution starting at 0.5 μM. […] The plate was read at 450 nm using an ELISA plate reader (Tecan, Switzerland).

Peptide 29 [9] = biological target: T8, Peptide 29; test: SPR Biacore 8K, antibody captured, peptide analyte, single-cycle kinetics, 1:1 fit
Description: (§4) Each cycle started with the non-covalent capture of the antibody which were diluted in running buffer to a final concentration of 5 μg/mL and injected for 120 sec with a flow rate of 10 μL/min. Antibodies being measured were captured in channels […], leaving Fc 1 as a blank Fc. Capture levels were evaluated following a 120 sec stabilization period after each antibody injection. ACI-7071-809F12-Ab1-rec2 was used as control, binding to the non-phosphorylated sequences represented in peptides 28 and 29.
(§5) Injections of peptides 28 or 29 were performed using single-cycle kinetics with increasing concentrations ranging from 1.2 to 100 nM prepared as a 3-fold serial dilution. Injections were performed with contact times of 300 sec/injection at a flow rate of 30 μL/min. A dissociation phase of 900 sec followed the final injection. Sensor surface was regenerated by two injection of 10 mM Glycine-HCl pH 1.7 at a flow rate of 10 μL/min for 60 sec, followed by a stabilization period of 120 sec. Results obtained from single-cycle kinetics were double-referenced using the blank Fc 1 and buffer cycles and evaluated by Biacore 8K evaluation software (Cytiva). The following kinetic parameters were obtained using the 1:1 binding fit model with variable Reflective Index (RI): association rate constant (ka), dissociation rate constant (kd), affinity constant (KD) and saturation response (Rmax).

Peptide 29 [10] = biological target: T8, Peptide 29; test: pairing sandwich ELISA, biotinylated antibody as detector, target titrated
Description: as §2, §3

Peptide 29 [11] = biological target: T8, Peptide 29; test: SPR Biacore 8K, antibody from purified hybridoma supernatant captured, peptide analyte, 1:1 fit
Description: as §4, §5

[12] = biological target: T9, recombinant full length TDP-43 (SEQ ID NO: 1, FL TDP-43) (human, UniProt Q13148 1-414); test: pairing sandwich ELISA, biotinylated antibody as detector, FL TDP-43 titrated
T9 construct: also called recombinant human soluble FL TDP-43; soluble human TDP-43
Description: as §2, §3

[13] = biological target: T9, recombinant full length TDP-43 (SEQ ID …); test: pairing sandwich ELISA, antibody coated as capture, FL TDP-43 titrated
Description: as §2
Serial-dilutions of target peptide or protein were then added to the plates. For assays with anti-phospho TDP-43 antibodies, one of four peptide conjugates (peptides 11, 23, 28, or 29) each composed of two TDP-43 sequences, one phosphorylated and one non-phosphorylated, conjugated together with a Trioxatridecan-succinamic acid linker (Ttds, binding regions and sequences shown in Table 4) were used. Peptides 11, 23, 28, and 29 were added in a 10-fold serial dilution starting at 0.5 μM. For assays with TDP-43 antibodies only, recombinant full length TDP-43 (SEQ ID NO: 1, FL TDP-43) was diluted 3-fold from 21.9 pM. Plates were incubated for 1 hour at 37° C., and then washed. […] PEG-biotinylated phospho TDP-43 or TDP-43 antibodies were then respectively added to the wells and incubated for 1 hour at 37° C., after which the plates were washed. Horseradish peroxidase (HRP)-conjugated streptavidin (R&D Systems, Switzerland) was added at 1/200 dilution in 1% BSA and 0.05% Tween-20/PBS for 45 min at room temperature. […] The plate was read at 450 nm using an ELISA plate reader (Tecan, Switzerland).

B1: ACI-8071-943.12A8-Ab1 (antibody, V domains shown)
VH: EVQLVESGGGLVHPKGSLQLSCAASGFTFNTYTMHWVRQAPGKGLEWVARIRSKRSNYATYYADSVKDRFTISRDDSQSMLYLQMNNLKTEDTAIYYCVRGTGSYWGQGTSVTVSS
VL: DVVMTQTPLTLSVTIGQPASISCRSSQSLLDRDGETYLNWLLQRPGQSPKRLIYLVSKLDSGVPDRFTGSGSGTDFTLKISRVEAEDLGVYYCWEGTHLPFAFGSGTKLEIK
notes: also called 943.12A8B4; pS403/pS404 TDP-43 antibody
binding result [1]: no binding (tested: peptide at 0.5 mM)
binding result [2]: no binding (tested: peptide at 0.5 mM)
binding result [3]: no binding (tested: peptide at 0.5 mM)
binding result [4]: no binding (tested: peptide at 0.5 mM)
binding result [5]: no binding (tested: peptide at 0.5 mM)
binding result [6]: no binding (tested: peptide at 0.5 mM)
binding result [7]: no binding (tested: peptide at 0.5 mM)

B3: ACI-8072-946.8H6-Ab1 (antibody, V domains shown)
VH: EEHLVESGGGLVKPGGSLKLSCAASGFTFSDYGMQWVRQAPEKGLEWVAYISSGSSTIYYEDTVKGRFTISRDNAKNTLFLQMTSLRSEDTAMYYCVRPYDNYGQGTLVTVSA
VL: DVLMTQTPLSLPVSLGDQASISCRSSQSIVHSNGNTYLEWYLQKPGQSPKLLIYKVSNRFSGVPDRFSGSGSGTDFTLKISRVEAEDVGVYYCFQGSHVPRTFGGGTKLEIK
notes: also called 946.8H6D10; pS409/pS410 TDP-43 antibody
EC50 (Peptide 29 [8]): 0.111 nM
Kd (Peptide 29 [9]): 3.28 nM
koff (Peptide 29 [9]): 0.00469 s⁻¹
kon (Peptide 29 [9]): 1.43e+06 M⁻¹ s⁻¹
EC50 (Peptide 29 [10]): 1.12 nM

B4: ACI-8072-946.9D6-Ab1 (antibody, V domains shown)
VH: EEHLVESGGGLVKPGGSLKLSCAASGFTFSDYGMQWVRQAPEKGLEWVAYISSGSSTIYYEDTVKGRFTISRDNAKNTLFLQMTSLRSEDTAMYYCVRPYDNYGQGTLVTVSA
VL: DIVLTQSPASLAVSLGQRATISCRASKSVSTSGYSYMHWYQQKPGQPPKLLIYLASNLESGVPARFSGSGSGTDFTLNIHPVEEEDAATYYCQHSRELPWTFGGGTKLEIK
notes: Data marked * were generated with hybridoma / purified hybridoma supernatant; also called 946.9D6F3
Kd (Peptide 29 [11]): 2.29 nM
koff (Peptide 29 [11]): 0.000707 s⁻¹
kon (Peptide 29 [11]): 309000 M⁻¹ s⁻¹

B5: ACI-8072-946.4G5-Ab1 (antibody, V domains shown)
VH: EVQLVESGGGLVKPGGSLKLSCAASGFTFSDYGMHWVRQAPEKGLEWVAYISSGSSTIYYADTVKGRFTMSRDNAKNTLFLQMTSLRSEDTAMYYCSRPYGNYGQGTLVTVSA
VL: DVLMTQTPLSLPVSLGDQASISCRSSQSIVHSNGNTYLEWYLQKPGQSPKLLIYKVSNRFSGVPDRFSGSGSGTDFTLKISRVEAEDLGVYYCFQGSHVPRTFGGGTKLEIK
notes: also called 946.4G5F1; pS409/pS410 TDP-43 antibody
EC50 (Peptide 29 [8]): 0.196 nM
Kd (Peptide 29 [9]): 1.68 nM
koff (Peptide 29 [9]): 0.000817 s⁻¹
kon (Peptide 29 [9]): 487000 M⁻¹ s⁻¹
EC50 (Peptide 29 [10]): 1.96 nM

B6: ACI-7069-636E5-Ab1 (as described in WO2020234473) (antibody, V domains shown)
VH: EVHLVESGGDLVMPGGSLKLSCAASGFTFSNYGMSWVRQTPDKRLEWVATISSGGKYINYLDSLKGRFTISRDNAKNTLYLQMSSLKSEDTAMYYCAKDYGSGWAWFAYWGQGTLVTVSA
VL: QLVLTQSSSASFSLGASAKLTCTLSSQHSTYTIEWYQQQPLKPPKYVMELKKDGSHSTGDGIPDRFSGSSSGADRYLSISNIQPEDEAIYICGVGDTIKEQFVYVFGGGTKVTVL
notes: also called 636E5B8
EC50 [12]: 0.07 nM
EC50 [13]: 1.16 nM

Continued, values first:

binding result [1]: no binding (tested: peptide at 0.5 mM)
binding result [2]: no binding (tested: peptide at 0.5 mM)
binding result [4]: no binding (tested: peptide at 0.5 mM)
binding result [6]: no binding (tested: peptide at 0.5 mM)
B2: ACI-8071-943.7H9-Ab1 (antibody, V domains shown)
VH: EIQLQQSGTVMARPGASVKMSCKTSGYIFTNYWMHWVKQRPGQGLDWIGTIYPGNSDTDYNQNFKGKAKLTAVTSASTAYMELSSLTNEDSAVYFCIRGGWGGFPYWGQGTLVTVSA
VL: DVVMTQIPLSLPVSLGDQASISCRSSQRLVHSNGNTYLHWYLQKPGQSPKFLIHKVSNRFSGVPDRFSGSGSGTDFTLKIRRVEAEDLGVYFCCQSTHVPYTFGGGTKLEIK
notes: also called 943.7H9H8; pS403/pS404 TDP-43 antibody

binding result [1]: no binding (tested: peptide at 0.5 mM)
binding result [2]: no binding (tested: peptide at 0.5 mM)
binding result [4]: no binding (tested: peptide at 0.5 mM)
binding result [6]: no binding (tested: peptide at 0.5 mM)
B7: ACI-8071-943.7D3-Ab1 (antibody, V domains shown)
VH: QVQLQQPGTELVKPGASVKLSCKASGYTFTRYWMHWMKQRPGQGLEWIGNINPSDGGTNYNEKFKNKASLTVDKSSSTAYMQLSRLTSEDSAVYYCARRGSGYWGQGTTLTVSS
VL: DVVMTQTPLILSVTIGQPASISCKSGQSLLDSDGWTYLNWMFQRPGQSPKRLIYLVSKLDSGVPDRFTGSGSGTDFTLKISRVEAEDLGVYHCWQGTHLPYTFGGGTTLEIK
notes: also called 943.7D3E2; pS403/pS404 TDP-43 antibody

binding result [1]: no binding (tested: peptide at 0.5 mM)
binding result [2]: no binding (tested: peptide at 0.5 mM)
binding result [3]: no binding (tested: peptide at 0.5 mM)
binding result [4]: no binding (tested: peptide at 0.5 mM)
binding result [5]: no binding (tested: peptide at 0.5 mM)
binding result [6]: no binding (tested: peptide at 0.5 mM)
binding result [7]: no binding (tested: peptide at 0.5 mM)
B8: ACI-8071-943.2E6-Ab1 (antibody, V domains shown)
VH: QVQLQQPGTELVKPGASVKLSCKASGYTFTSYWMHWVKQRPGQGLEWIGNINPINSDTNYNEKFKTKATLTVDKSSSTAYMQLSSLTSEDSAVYYCARRGSGYWGQGTTLTVSS
VL: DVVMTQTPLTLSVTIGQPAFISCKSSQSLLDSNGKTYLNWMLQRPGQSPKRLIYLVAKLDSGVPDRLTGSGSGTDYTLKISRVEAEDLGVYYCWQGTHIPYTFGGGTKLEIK
notes: also called 943.2E6E10; pS403/pS404 TDP-43 antibody
